# Measurements from patent publication US20180155451A1 (published 2018).
# T1: FcγRIIb extracellular domain with C-terminal His tag (human, UniProt P31994 43-217)
# T1 construct: extracellular domain; also called FcgRIIb; 2b; not shown: His tag at the C terminus
# T1 sequence (looked up): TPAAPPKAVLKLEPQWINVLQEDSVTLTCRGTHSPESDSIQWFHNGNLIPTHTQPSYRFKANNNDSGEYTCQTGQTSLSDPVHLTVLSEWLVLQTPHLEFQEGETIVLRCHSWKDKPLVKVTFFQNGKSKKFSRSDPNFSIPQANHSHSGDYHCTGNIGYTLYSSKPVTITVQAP
# B1: GpH7-A5/GpH7-B3 variant S298_02A/GpL16-k0 (antibody, human IgG1, kappa)
# heavy 1: not shown
# heavy 2: not shown
# light: DIVMTQSPLSLPVTPGEPASISCQASESLVHSNRNTYLHWYLQKPGQSPQLLIYKVSNRFSGVPDRFSGSGSGTDFTLKISRVEAEDVGVYYCSQNTHVPPTFGQGTKVEIERTVAAPSVFIFPPSDEQLKSGTASVVCLLNNFYPREAKVQWKVDNALQSGNSQESVTEQDSKDSTYSLSSTLTLSKADYEKHKVYACEVTHQGLSSPVTKSFNRGEC
# notes: position is EU numbering; also called He Ab
# B2: GpH7-A5/GpH7-B3 variant A327_11K/GpL16-k0 (antibody, human IgG1, kappa)
# heavy 1: not shown
# heavy 2: not shown
# light: B1 light
# notes: as for B1
# B3: GpH7-A5/GpH7-B3 variant A330_03V/GpL16-k0 (antibody, human IgG1, kappa)
# heavy 1: not shown
# heavy 2: not shown
# light: B1 light
# notes: as for B1
# B4: GpH7-A5/GpH7-B3 variant A330_04F/GpL16-k0 (antibody, human IgG1, kappa)
# heavy 1: not shown
# heavy 2: not shown
# light: B1 light
# notes: as for B1
# B5: GpH7-A5/GpH7-B3 variant A330_06M/GpL16-k0 (antibody, human IgG1, kappa)
# heavy 1: not shown
# heavy 2: not shown
# light: B1 light
# notes: as for B1
# B6: GpH7-A5/GpH7-B3 variant A330_07I/GpL16-k0 (antibody, human IgG1, kappa)
# heavy 1: not shown
# heavy 2: not shown
# light: B1 light
# notes: as for B1
# B7: GpH7-A5/GpH7-B3 variant A330_08L/GpL16-k0 (antibody, human IgG1, kappa)
# heavy 1: not shown
# heavy 2: not shown
# light: B1 light
# notes: as for B1
# B8: GpH7-A5/GpH7-B3 variant A330_10E/GpL16-k0 (antibody, human IgG1, kappa)
# heavy 1: not shown
# heavy 2: not shown
# light: B1 light
# notes: as for B1
# B9: GpH7-A5/GpH7-B3 variant A330_15Y/GpL16-k0 (antibody, human IgG1, kappa)
# heavy 1: not shown
# heavy 2: not shown
# light: B1 light
# notes: as for B1
# B10: GpH7-A5/GpH7-B3 variant A330_20W/GpL16-k0 (antibody, human IgG1, kappa)
# heavy 1: not shown
# heavy 2: not shown
# light: B1 light
# notes: as for B1
# B11: GpH7-A5/GpH7-B3 variant E333_01G/GpL16-k0 (antibody, human IgG1, kappa)
# heavy 1: not shown
# heavy 2: not shown
# light: B1 light
# notes: as for B1
# B12: GpH7-A5/GpH7-B3 variant E333_02A/GpL16-k0 (antibody, human IgG1, kappa)
# heavy 1: not shown
# heavy 2: not shown
# light: B1 light
# notes: as for B1
# B13: GpH7-A5/GpH7-B3 variant E333_13S/GpL16-k0 (antibody, human IgG1, kappa)
# heavy 1: not shown
# heavy 2: not shown
# light: B1 light
# notes: as for B1
# B14: GpH7-A5/GpH7-B3 variant E333_16H/GpL16-k0 (antibody, human IgG1, kappa)
# heavy 1: not shown
# heavy 2: not shown
# light: B1 light
# notes: as for B1
# B15: GpH7-A5/GpH7-B3 variant I332_01G/GpL16-k0 (antibody, human IgG1, kappa)
# heavy 1: not shown
# heavy 2: not shown
# light: B1 light
# notes: as for B1
# B16: GpH7-A5/GpH7-B3 variant I332_09D/GpL16-k0 (antibody, human IgG1, kappa)
# heavy 1: not shown
# heavy 2: not shown
# light: B1 light
# notes: as for B1
# Target: T2, FcγRIIIa extracellular domain with C-terminal His tag (human, UniProt P08637 17-208)
# T2 construct: extracellular domain; also called FcgRIIIa; 3a; not shown: His tag at the C terminus
# Test: SPR (Biacore); ratio of He/Con_3a (FcγRIIIa) to He/Con_2b (FcγRIIb)
# Protocol: (§1) The heterodimerized antibodies He Abs in which one of the H chains was introduced with an alteration were assayed for their binding activities to each activating FcγR and inhibitory FcγR according to the method described in Example 4. […] The activating FcγRs in FIGS. 26, 27, 28, and 29 are FcγRIa, FcγRIIa (R), FcγRIIa (H), and FcγRIIIa, respectively.
# (§2) Analysis of interaction between objective antibody and the FcγR was carried out using Biacore T100 (GE Healthcare). HBS-EP+ (GE Healthcare) was used as the running buffer, and the measurement temperature was set to 25° C. Chips produced by immobilizing the antigen peptide by the amine coupling method to a Series S Sencor Chip CM5 (GE Healthcare), or alternatively, chips produced by allowing preliminarily biotinylated antigen peptides to interact with and immobilize onto a Series S Sensor Chip SA (certified) (GE Healthcare) were used. Antibodies of interest were captured onto an antigen peptide-immobilized chip, and allowed to interact to each FcγR diluted with running buffer. To regenerate and repeatedly use the chip, the antibodies captured on the chip were washed off by reacting 10 mM glycine-HCl, pH 1.5.
# T2 sequence (P08637 17-208): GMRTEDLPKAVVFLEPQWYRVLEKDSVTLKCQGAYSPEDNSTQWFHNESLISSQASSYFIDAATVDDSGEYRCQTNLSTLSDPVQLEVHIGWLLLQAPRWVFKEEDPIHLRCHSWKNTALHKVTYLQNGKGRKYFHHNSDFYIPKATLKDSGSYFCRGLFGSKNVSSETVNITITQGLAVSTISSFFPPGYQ
row,Binder,He_3a/2b (IIIa/IIb) [ratio]
1,B1,2.18
2,B2,2.53
3,B3,1.93
4,B4,1.59
5,B5,1.76
6,B6,1.53
7,B7,1.77
8,B8,1.21
9,B9,1.32
10,B10,1.37
11,B11,1.21
12,B12,1.26
13,B13,1.26
14,B14,1.24
15,B15,1.27
16,B16,1.41

# Target: T1, FcγRIIb extracellular domain with …
# Test: SPR (Biacore), antibody captured, FcγR as analyte; He Ab binding / GpH7-A5/GpH7-B3/GpL16-k0 binding x 100
# Protocol: as §1, §2
row,Binder,He/Con_2b (IIb binding)
1,B1,"73.4 relative, control = 100"
2,B2,"12.5 relative, control = 100"
3,B3,"52.4 relative, control = 100"
4,B4,"92.8 relative, control = 100"
5,B5,"80.5 relative, control = 100"
6,B6,"67.1 relative, control = 100"
7,B7,"70.5 relative, control = 100"
8,B8,"70.1 relative, control = 100"
9,B9,"95 relative, control = 100"
10,B10,"76.1 relative, control = 100"
11,B11,"81.4 relative, control = 100"
12,B12,"83.8 relative, control = 100"
13,B13,"81.8 relative, control = 100"
14,B14,"83.3 relative, control = 100"
15,B15,"87.1 relative, control = 100"
16,B16,"147 relative, control = 100"

# Target: T2, FcγRIIIa extracellular domain with …
# Test: as above
# Protocol: as §1, §2
row,Binder,He/Con_3a (IIIa binding)
1,B1,"160 relative, control = 100"
2,B2,"31.7 relative, control = 100"
3,B3,"101 relative, control = 100"
4,B4,"147 relative, control = 100"
5,B5,"142 relative, control = 100"
6,B6,"103 relative, control = 100"
7,B7,"124 relative, control = 100"
8,B8,"84.6 relative, control = 100"
9,B9,"125 relative, control = 100"
10,B10,"104 relative, control = 100"
11,B11,"98.2 relative, control = 100"
12,B12,"105 relative, control = 100"
13,B13,"103 relative, control = 100"
14,B14,"103 relative, control = 100"
15,B15,"111 relative, control = 100"
16,B16,"207 relative, control = 100"
